Measured values from patent US20240254203A1 (ACHELOIS BIOPHARMA, published 2024).

B1: C021 (antibody, V domains shown)
VH: QVQLQESGPGLVKPSQTLSLTCTVSGGSISSGGYYWSWIRQHPGKGLEWIGYIYYSGSTYYNPSLKSRVTISVDTSKNQFSLKLSSVTAADTAVYYCARVWQYYDSSGSFDYWGQGTLVTVSS
VL: not shown
B2: 2M-10B11 (antibody, V domains shown)
VH: EVQLVESGGGLVQPGGSLRLSCAASGFTVSSNYMSWVRQAPGKGLEWVSVIYSGGSTYYADSVKGRFTISRDNSKNTLYLQMNSLRAEDTAVYYCARATWLRGVMDVWGQGTTVTVSS
VL: QSALTQPHSVSESPGKTVTISCTGSSGSIASNYVQWYQQRPGSAPTTVIYEDNQRPSGVPDRFSGSIDSSSNSASLTISGLKTEDEADYYCQSYDSSNHWVFGGGTKLTVL
B3: C018 (antibody, V domains shown)
VH: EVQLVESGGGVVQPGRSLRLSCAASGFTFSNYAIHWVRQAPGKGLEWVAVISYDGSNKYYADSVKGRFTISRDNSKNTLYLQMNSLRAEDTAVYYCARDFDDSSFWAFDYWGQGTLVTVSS
VL: DIQLTQSPSSLSASVGDRVTITCRASQSIRSYLNWYQQKPGKAPKLLIYAASSLQSGVPSRFSGSGSGTDFTLTISSLQPDDFATYYCQQSYSTPPATFGQGTKLEIK
B4: 0304-4A10 (antibody, V domains shown)
VH: EVQLVESGGGLVQPGGSLRLSCAASGFTFSTYAMHWVRQAPGKGLEYVSGISSNGGSTYYANSVKGRFTISRDNSKNTLYIQMGSLRAEDMAVYYCARSSSRGFDYWGQGTLVTVSS
VL: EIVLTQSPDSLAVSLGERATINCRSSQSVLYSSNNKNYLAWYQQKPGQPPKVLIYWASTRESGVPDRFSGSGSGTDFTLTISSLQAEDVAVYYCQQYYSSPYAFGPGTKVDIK
B5: 9A1 (antibody, V domains shown)
VH: EVQLLESGGGVVQPGRSLRLSCVVSGFTFNNYGMHWVRQAPGKGLEWVAVISYEGSVKYYGDHVDGRFTISRDPFKNTLYLHMNNLRPDDTAVYYCAKVSAIFWLGQGLSPIDVWGQGTTVTVSS
VL: DIVMTQSPATLSASPGERVTLSCRASQNIRNNLAWYQQKPGQAPRLLIHGASTRAAGAPARFSGSGSDTQFTLTVSSLQSEDFAVYYCHQYSKWPVTFGGGTKVDIK
B6: 2M-14E5 (antibody, V domains shown)
VH: EVQLVESGGGVVQPGRSLRLSCAASGFTFSTYSMHWVRQAPGKGLEWVAVISYDGSNKYYADSVKGRFTISRDNSKNTLYLQVNSLRAEDTAVYYCARSGGGSYRGPFDYWGQGTLVTVSS
VL: AIRMTQSPSFLSVSVGDRVTITCRASQGISSYLAWYQQKPGKAPKLLIYAASTLQSGVPSRFSGSGSGTEFTLTISSLQPEDFATYYCQQLNSYVTFGGGTKVEIK

Target: T1, SARS CoV-2 spike protein (antigen of the mAb binding affinity values) (SARS CoV-2, UniProt P0DTC2 14-1213)
Assay: assay not described; mAb; binding locale Spike RBD

In order of falling “mAb Binding Affinity” value:
1. B2  5 ng/mL
2. B3  1.53 ng/mL
3. B1  1.25 ng/mL

Target: T1, SARS CoV-2 spike protein (antigen of …)
Assay: assay not described; mAb; binding locale Spike S2

In order of rising “mAb Binding Affinity” value:
1. B4  3 ng/mL
2. B5  5 ng/mL
3. B6  7 ng/mL
